Values belong to the binder of their own block, whether it stands above or below them.
Key:
[1] = target: antigen of the ScFv (Example 1); assay: spotted films, Alexa647-labelled pure antigen, fluorescence; reference ScFv alone
[2] = target: antigen of scFv1 (Example 6); assay: microarray of spotted films, 10 nM biotinylated antigen, Alexa-647-labeled streptavidin, spot intensity; reference scFv1 control

fold more antigen bound compared to ScFv alone [1]: > 10 times
B1: His6Rep4CTScFv (scFv)
chain: MHHHHHHGQGGYGGLGQGGYGQGAGSSAAAAAAAAAAAAGGQGGQGQGGYGQGSGGSAAAAAAAAAAAAAAAGRGQGGYGQGSGGNAAAAAAAAAAAAAAAGQGGQGGYGRQSQGAGSAAAAAAAAAAAAAAGSGQGGYGGQGQGGYGQSSASASAAASAASTVANSVSRLSSPSAVSRVSSAVSSLVSNGQVNMAALPNIISNISSSVSASAPGASGCEVIVQALLEVITALVQIVSSSSVGYINPSAVNQITNVVANAMAQVMGGNSEVQLLESGGGLVQPGGSLRLSCAASGFTFSSYEMNWVRQAPGKGLEWVSGISGSGGFTYYADSVKGRFTISRDNSKNTLYLQMNSLRAEDTAMYYCAREGYQDAFDIWGQGTLVTVSSGGGGSGGGGSGGGGSQSVLTQPPSASGTPGQRVTISCTGSSSNIGAGYDVHWYQQLPGTAPKLLIYSNNQRPSGVPDRFSGSKSGTSASLAISGLRSEDEADYYCAAWDDSLSGPPCVFGGGTKLTVLGEQKLISEEDLSGSAAA

fold more antigen bound compared to ScFv alone [1]: 10 times
B2: His6ScFvRep4CT (scFv)
chain: MGSSGHHHHHHMEVQLLESGGGLVQPGGSLRLSCAASGFTFSSYEMNWVRQAPGKGLEWVSGISGSGGFTYYADSVKGRFTISRDNSKNTLYLQMNSLRAEDTAMYYCAREGYQDAFDIWGQGTLVTVSSGGGGSGGGGSGGGGSQSVLTQPPSASGTPGQRVTISCTGSSSNIGAGYDVHWYQQLPGTAPKLLIYSNNQRPSGVPDRFSGSKSGTSASLAISGLRSEDEADYYCAAWDDSLSGPPCVFGGGTKLTVLGEQKLISEEDLSGSAAAGNSGQGGYGGLGQGGYGQGAGSSAAAAAAAAAAAAGGQGGQGQGGYGQGSGGSAAAAAAAAAAAAAAAGRGQGGYGQGSGGNAAAAAAAAAAAAAAAGQGGQGGYGRQSQGAGSAAAAAAAAAAAAAAGSGQGGYGGQGQGGYGQSSASASAAASAASTVANSVSRLSSPSAVSRVSSAVSSLVSNGQVNMAALPNIISNISSSVSASAPGASGCEVIVQALLEVITALVQIVSSSSVGYINPSAVNQITNVVANAMAQVMG

fold increase of antigen recognition compared to the scFv1 control alone [2]: 25 times
B3: His6-scFv1-NTCT (scFv)
chain: MGSSGHHHHHHMEVQLLESGGGLVQPGGSLRLSCAASGFTFSSYEMNWVRQAPGKGLEWVSGISGSGGFTYYADSVKGRFTISRDNSKNTLYLQMNSLRAEDTAMYYCAREGYQDAFDIWGQGTLVTVSSGGGGSGGGGSGGGGSQSVLTQPPSASGTPGQRVTISCTGSSSNIGAGYDVHWYQQLPGTAPKLLIYSNNQRPSGVPDRFSGSKSGTSASLAISGLRSEDEADYYCAAWDDSLSGPPWVFGGGTKLTVLGEQKLISEEDLSGSAAAGNSSHTTPWTNPGLAENFMNSFMQGLSSMPGFTASQLDDMSTIAQSMVQSIQSLAAQGRTSPNKLQALNMAFASSMAEIAASEEGGGSLSTKTSSIASAMSNAFLQTTGVVNQPFINEITQLVSMFAQAGMNDVSAGNSGIQGYGQSSASASAAASAASTVANSVSRLSSPSAVSRVSSAVSSLVSNGQVNMAALPNIISNISSSVSASAPGASGCEVIVQALLEVITALVQIVSSSSVGYINPSAVNQITNVVANAMAQVMG

From US20150119554A1
